Test results as given in PMC9672333 (2022).

B1: Casirivimab (antibody, V domains shown)
VH: QVQLVESGGGLVKPGGSLRLSCAASGFTFSDYYMSWIRQAPGKGLEWVSYITYSGSTIYYADSVKGRFTISRDNAKSSLYLQMNSLRAEDTAVYYCARDRGTTMVPFDYWGQGTLVTVSS
VL: DIQMTQSPSSLSASVGDRVTITCQASQDITNYLNWYQQKPGKAPKLLIYAASNLETGVPSRFSGSGSGTDFTFTISGLQPEDIATYYCQQYDNLPLTFGGGTKVEIK
B2: Tixagevimab Biosimilar (antibody, V domains shown)
VH: QMQLVQSGPEVKKPGTSVKVSCKASGFTFMSSAVQWVRQARGQRLEWIGWIVIGSGNTNYAQKFQERVTITRDMSTSTAYMELSSLRSEDTAVYYCAAPYCSSISCNDGFDIWGQGTMVTVSS
VL: not shown
B3: Imdevimab (antibody, V domains shown)
VH: QVQLVESGGGVVQPGRSLRLSCAASGFTFSNYAMYWVRQAPGKGLEWVAVISYDGSNKYYADSVKGRFTISRDNSKNTLYLQMNSLRTEDTAVYYCASGSDYGDYLLVYWGQGTLVTVSS
VL: QSALTQPASVSGSPGQSITISCTGTSSDVGGYNYVSWYQQHPGKAPKLMIYDVSKRPSGVSNRFSGSKSGNTASLTISGLQSEDEADYYCNSLTSISTWVFGGGTKLTVL

Target: Wild type spike RBD (UniProt P0DTC2) (SARS-CoV-2, UniProt P0DTC2 319-541)

Binder	Kd
B1	0.8 nM
B2	0.6 nM
B3	65 nM
